The record followed here is patent US20160377619A1 (MEDICINAL BIOCONVERGENCE RESEARCH CENTER, published 2016).

For test [1], the target named is T1, aminoacyl-tRNA-synthetase-interacting multifunctional protein 1 (AIMP1), recombinant (UniProt Q12904 1-312, limits assumed).
T1 construct: also called AIMP1(p43); p43
T1 sequence (looked up): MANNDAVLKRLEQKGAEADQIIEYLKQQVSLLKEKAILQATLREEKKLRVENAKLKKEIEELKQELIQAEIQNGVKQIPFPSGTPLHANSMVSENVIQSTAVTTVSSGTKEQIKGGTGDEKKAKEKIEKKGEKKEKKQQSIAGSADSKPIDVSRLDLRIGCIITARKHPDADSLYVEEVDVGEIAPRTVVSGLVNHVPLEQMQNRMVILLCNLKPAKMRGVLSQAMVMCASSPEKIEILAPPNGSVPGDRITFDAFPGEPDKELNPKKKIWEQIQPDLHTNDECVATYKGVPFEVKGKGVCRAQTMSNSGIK
Nature of the test: Luminex multiplex bead assay, antigen coupled to beads, anti-HA-biotin and SA-PE detection. Here is the method:
(§1) Then, 50 mg/ml S—NHS (N-hydroxysulfosuccinimide) and 50 mg/ml EDAC (1-ethy-3-[3-dimethylaminopropyl]carbodiimide) were added, followed by activation at room temperature for 20 minutes. The activated beads were washed with PBS, and then 10 μg of respective recombinant ARS antigens, that is, WRS, HRS, NRS, KRS, SRS, YRS, GRS, and AIMP1(p43), which were purified at purity of 90% or higher, were added, followed by reaction at room temperature for 2 hours. The beads linked to the respective ARS antigens were washed. two times with PBS, and then a blocking buffer was added to perform a reaction at room temperature for 30 minutes, thereby blocking unbound residues. Then, the resultant beads were washed two times with PBS, and again dispersed in 100 μl of PBS, and kept in tubes in which the light was blocked. The number of beads bound was measured and recorded by hemocytometer.
(§2) The antibody of the present invention extracted from the periplasm was first diluted with a specimen diluent (PBST+2% BSA) to 1:400. Then, the diluted antibody was diluted 2-fold serially with a specimen diluent, and dispensed in 96 well filter plate at 50 μl for each well. Only the specimen diluent was added in the blank well without the antibody. The ARS-bound beads were put in bead mix tubes to 2000 beads per well, respectively, and the specimen diluent was put with a volume such that 50 μl of the specimen diluent could be put per well. The bead mix solution was well mixed and dispensed in each well, followed by reaction in dark room for 1 hour. After the reaction was ended, the resultant solution was washed three times with PBS (200 μl/well) using a vacuum manifold, 50 μl Anti-(HA)-biotin secondary antibody was added, followed by further reaction in dark room for 1 hour. The beads binding to the secondary antibody were washed three times with PBS, and then, for fluorescent labeling, SA-PE (Streptavidin-Phycoerythrin) was added to 2 μg/ml, followed by reaction in dark room for 30 minutes, washing three times with PBS, and again dispersion in 100 μl of PBS. The fluorescent intensity of the fluorescence-labeled beads was measured using Bio-Plex (Luminex) 200 equipment and Bio-Plex manager program, and the measurement values were analyzed to investigate the binding of the antibody to each ARS.

Test [2] has as its target T2, tryptophanyl-tRNA synthetase (WRS), recombinant (UniProt P23381 1-471, limits assumed).
T2 sequence (looked up): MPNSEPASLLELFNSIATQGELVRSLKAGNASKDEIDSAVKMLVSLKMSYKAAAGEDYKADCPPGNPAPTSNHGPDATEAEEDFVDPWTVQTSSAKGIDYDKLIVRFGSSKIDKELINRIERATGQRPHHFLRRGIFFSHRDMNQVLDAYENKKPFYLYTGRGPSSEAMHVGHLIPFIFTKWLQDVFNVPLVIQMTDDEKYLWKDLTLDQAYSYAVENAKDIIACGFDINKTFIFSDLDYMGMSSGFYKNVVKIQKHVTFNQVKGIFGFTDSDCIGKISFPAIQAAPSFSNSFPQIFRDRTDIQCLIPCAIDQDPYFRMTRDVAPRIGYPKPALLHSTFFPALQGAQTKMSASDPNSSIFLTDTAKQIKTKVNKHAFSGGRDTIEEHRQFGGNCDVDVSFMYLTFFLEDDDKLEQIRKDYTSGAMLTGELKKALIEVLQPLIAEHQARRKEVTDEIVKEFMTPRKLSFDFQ
The test is described as above. The procedure:
as §1, §2

Test [3] addresses T3, histidyl-tRNA synthetase (HRS), recombinant (UniProt P12081 1-509, limits assumed).
T3 sequence (looked up): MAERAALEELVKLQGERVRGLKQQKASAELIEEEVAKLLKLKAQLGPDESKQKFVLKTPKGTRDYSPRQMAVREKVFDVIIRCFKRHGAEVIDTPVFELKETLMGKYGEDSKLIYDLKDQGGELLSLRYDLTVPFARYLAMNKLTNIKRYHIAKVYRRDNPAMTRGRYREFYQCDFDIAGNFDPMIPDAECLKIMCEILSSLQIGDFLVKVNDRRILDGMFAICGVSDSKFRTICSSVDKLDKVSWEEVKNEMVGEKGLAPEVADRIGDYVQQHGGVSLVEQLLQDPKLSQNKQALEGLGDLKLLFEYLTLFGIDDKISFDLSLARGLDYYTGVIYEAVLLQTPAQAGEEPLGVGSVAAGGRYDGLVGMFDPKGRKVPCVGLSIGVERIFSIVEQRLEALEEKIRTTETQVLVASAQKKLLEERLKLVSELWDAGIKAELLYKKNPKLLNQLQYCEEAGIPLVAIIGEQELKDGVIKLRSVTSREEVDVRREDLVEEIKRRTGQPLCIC
The description is as above. Here is the method:
as §1, §2

For test [4], the target named is T4, asparaginyl-tRNA synthetase (NRS), recombinant (UniProt O43776 1-548, limits assumed).
T4 sequence (looked up): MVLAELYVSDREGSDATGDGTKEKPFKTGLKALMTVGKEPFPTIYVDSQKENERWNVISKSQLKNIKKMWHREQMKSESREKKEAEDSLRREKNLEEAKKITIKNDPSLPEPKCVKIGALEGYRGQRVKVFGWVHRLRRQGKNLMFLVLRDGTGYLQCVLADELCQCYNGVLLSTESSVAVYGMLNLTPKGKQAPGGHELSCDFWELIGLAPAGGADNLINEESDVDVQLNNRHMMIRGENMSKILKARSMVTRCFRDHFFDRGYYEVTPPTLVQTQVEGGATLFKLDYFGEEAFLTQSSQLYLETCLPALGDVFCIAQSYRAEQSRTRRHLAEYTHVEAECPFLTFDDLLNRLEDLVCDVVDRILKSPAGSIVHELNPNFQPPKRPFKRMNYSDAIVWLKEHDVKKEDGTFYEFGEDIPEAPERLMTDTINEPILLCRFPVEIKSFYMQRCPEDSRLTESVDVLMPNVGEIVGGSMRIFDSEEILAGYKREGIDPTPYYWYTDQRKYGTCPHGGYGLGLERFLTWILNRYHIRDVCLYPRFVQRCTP
The description is as above. The procedure: as §1, §2

The target of test [5] is seryl-tRNA synthetase (SRS), recombinant (UniProt P49591 1-514, limits assumed). The test is described as above. The procedure:
as §1, §2

Test [6] deals with T5, tyrosyl-tRNA synthetase (YRS), recombinant (UniProt P54577 1-528, limits assumed).
T5 sequence (looked up): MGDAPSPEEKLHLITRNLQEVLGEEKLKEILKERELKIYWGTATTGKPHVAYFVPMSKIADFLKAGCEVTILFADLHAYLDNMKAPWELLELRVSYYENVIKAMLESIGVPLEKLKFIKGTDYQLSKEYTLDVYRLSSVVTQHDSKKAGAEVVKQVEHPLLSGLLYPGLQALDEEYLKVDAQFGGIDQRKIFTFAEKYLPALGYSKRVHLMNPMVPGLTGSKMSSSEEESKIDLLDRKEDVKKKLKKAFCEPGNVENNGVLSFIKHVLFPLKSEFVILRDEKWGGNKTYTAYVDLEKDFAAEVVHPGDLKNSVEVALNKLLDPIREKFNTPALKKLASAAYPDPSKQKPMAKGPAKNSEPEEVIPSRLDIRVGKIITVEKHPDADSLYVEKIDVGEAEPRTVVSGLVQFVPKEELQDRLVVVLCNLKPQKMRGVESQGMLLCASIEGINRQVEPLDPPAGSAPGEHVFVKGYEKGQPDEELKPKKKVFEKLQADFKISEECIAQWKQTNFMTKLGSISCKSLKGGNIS
The description is as above. The procedure:
as §1, §2

In test [7] the target is T6, glycyl-tRNA synthetase (GRS), recombinant (UniProt P41250 55-739, limits assumed).
T6 sequence (looked up): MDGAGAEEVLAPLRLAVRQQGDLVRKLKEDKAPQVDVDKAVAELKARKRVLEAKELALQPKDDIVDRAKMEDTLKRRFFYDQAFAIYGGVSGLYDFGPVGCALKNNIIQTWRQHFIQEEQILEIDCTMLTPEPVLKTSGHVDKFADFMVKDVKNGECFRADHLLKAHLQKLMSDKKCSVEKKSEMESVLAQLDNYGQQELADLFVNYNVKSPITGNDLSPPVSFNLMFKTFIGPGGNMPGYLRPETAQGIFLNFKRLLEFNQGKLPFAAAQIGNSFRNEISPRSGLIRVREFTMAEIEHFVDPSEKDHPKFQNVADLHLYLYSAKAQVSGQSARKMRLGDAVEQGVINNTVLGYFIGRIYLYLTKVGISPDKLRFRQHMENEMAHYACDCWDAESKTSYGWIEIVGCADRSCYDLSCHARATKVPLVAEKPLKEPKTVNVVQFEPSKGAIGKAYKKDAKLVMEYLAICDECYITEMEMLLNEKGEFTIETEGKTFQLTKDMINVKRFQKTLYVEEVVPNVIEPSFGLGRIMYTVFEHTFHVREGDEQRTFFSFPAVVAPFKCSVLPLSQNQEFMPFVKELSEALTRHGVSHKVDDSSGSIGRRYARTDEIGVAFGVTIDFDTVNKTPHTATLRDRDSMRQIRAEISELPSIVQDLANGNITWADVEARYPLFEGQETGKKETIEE
The description is as above. The procedure: as §1, §2

The target of test [8] is T7, lysyl-tRNA synthetase (KRS), recombinant (human, UniProt Q15046 1-597, limits assumed).
T7 construct: the construct is not described; also called KRS antigen; recombinant KRS standard material
T7 sequence (Q15046 whole entry): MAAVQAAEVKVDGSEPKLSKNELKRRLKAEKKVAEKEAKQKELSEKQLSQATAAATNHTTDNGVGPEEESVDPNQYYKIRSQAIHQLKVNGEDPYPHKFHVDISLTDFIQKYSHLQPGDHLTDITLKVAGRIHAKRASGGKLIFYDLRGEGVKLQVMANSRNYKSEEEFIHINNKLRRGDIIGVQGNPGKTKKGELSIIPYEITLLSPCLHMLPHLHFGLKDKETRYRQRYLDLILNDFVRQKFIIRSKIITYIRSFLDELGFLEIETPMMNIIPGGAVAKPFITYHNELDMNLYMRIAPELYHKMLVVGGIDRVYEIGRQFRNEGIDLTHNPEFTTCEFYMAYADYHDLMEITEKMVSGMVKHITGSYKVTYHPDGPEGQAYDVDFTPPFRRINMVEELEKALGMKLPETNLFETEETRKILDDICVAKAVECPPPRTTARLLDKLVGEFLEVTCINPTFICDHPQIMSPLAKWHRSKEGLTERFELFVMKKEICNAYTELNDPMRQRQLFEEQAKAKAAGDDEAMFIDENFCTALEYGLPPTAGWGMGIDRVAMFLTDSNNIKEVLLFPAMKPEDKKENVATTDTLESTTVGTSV
Nature of the test: SPR (ProteOn XPR36), KRS amine-coupled to GLC chip, purified scFv injected at 500-30 nM, 25 C. Here is the method:
The binding affinity of the antibody of the present invention to KRS antigen was measured using the ProteOnTMXPR36 SPR (surface plasmon resonance) biosensor (Bio-Rad).
Specifically, approximately 10 μg/ml KRS antigen was immobilized at about 2,000-4,000 response units to GLC chip (Bio-Rad 6×6 sensor chip, Compact capacity amine coupling for protein-protein interactions) according to the manufacturer's manual, and then 30 μl of the purified scFv antibody of the present invention, which was diluted with PBS to various concentrations (500-30 nM), was injected to the chip at a rate of 50 μl/min at 25° C. to quantify the interaction with the antigen. The surface of the chip was regenerated with 0.85% phosphoric acid. The association rate and dissociation rate were calculated using the ProteOn Manager software, and the equilibrium dissociation constant (KD) was calculated as a ratio of dissociation rate/association rate.

Sequence of seryl-tRNA synthetase (SRS), recombinant (P49591 whole entry): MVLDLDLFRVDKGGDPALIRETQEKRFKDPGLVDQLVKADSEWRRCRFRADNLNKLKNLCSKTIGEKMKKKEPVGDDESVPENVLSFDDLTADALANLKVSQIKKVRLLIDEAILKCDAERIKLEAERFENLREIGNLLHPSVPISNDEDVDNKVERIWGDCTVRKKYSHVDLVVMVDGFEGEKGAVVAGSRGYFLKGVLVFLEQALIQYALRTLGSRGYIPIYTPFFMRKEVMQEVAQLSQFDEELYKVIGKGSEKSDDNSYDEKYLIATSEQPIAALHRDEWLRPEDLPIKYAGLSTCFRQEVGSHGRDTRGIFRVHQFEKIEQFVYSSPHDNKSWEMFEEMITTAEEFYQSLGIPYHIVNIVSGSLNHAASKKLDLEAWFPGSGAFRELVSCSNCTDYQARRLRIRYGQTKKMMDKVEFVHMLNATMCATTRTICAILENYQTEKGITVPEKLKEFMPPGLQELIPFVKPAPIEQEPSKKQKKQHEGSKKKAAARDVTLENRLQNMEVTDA

B1: anti-KRS scFv Biocon-K1 (scFv)
scFv: EVQLLESGGGLVQPGGSLRLSCAASGFTFSNYAMSWVRQAPGKGLEWVSGISPSSGDTYYADSVKGRFTISRDNSKNTLYLQMNSLRAEDTAVYYCAKGVWWYHPLLFDYWGQGTLVTVSSGGGGSGGGGSGGGGSQSVLTQPPSASGTPGQRVTISCSGSSSNIGNNTVSWYQQLPGTAPKLLIYANSKRPSGVPDRFSGSKSGTSASLAISGLRSEDEADYYCGAWDSSLSGYVFGGGTKLTVL
notes: Single clone from a human VH3-23/VL1g phage scFv library, expressed in the E. coli periplasm; Purified scFv was used in SPR and ELISA, periplasmic extract in western blot and Luminex assay; also called antibody of the present invention; anti-KRS scFv antibody; not shown: His and HA tags of the pComb3X vector are implied by Ni-NTA purification and anti-HA detection
By Kd is commonly meant a measure of binding affinity in units of concentration. Turning to B1, the binding result in test [1], in test [2], in test [3], in test [4], in test [5] and in test [6] was “no binding” throughout. Also, the binding result in test [7] is “no binding”. The Kd in test [8] was 0.1 µM.
